# Experimental data reported in patent publication US20190160181A1 (MERSANA THERAPEUTICS, published 2019).
# Several values for one entry are separate records, joined by “and”; a condition that tells them apart may be missing. Equal values may be shown once.
# T1: human NaPi2b (human, UniProt O95436 1-690)
# T1 construct: whole, on cells; read as O95436; Detected by immunohistochemistry in tissue sections; also called SLC34A2; NaPiIIb
# T1 sequence (looked up): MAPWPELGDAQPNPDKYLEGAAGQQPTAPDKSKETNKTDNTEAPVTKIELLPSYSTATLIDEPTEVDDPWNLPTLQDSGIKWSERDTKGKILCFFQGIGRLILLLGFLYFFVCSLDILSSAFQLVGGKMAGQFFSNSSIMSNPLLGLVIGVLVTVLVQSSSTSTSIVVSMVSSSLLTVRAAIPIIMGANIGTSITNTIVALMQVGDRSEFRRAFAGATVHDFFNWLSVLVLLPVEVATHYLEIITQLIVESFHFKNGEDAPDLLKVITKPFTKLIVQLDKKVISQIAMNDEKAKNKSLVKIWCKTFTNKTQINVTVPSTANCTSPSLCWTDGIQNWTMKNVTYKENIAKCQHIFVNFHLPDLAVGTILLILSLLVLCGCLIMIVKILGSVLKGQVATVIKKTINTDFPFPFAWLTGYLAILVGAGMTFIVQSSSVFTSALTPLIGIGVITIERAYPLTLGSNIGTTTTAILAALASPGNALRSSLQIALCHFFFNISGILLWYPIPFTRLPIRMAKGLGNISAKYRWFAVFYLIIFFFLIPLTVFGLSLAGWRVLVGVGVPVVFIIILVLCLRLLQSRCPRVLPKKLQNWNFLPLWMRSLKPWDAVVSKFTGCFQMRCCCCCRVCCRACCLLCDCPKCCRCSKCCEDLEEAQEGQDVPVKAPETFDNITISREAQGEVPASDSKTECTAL
# What was measured:
# [1] = target: T2, Human cyclized NaPi2b peptide (human); experiment: ELISA on plate-coated human cyclized NaPi2b peptide, one site-specific binding fit
# T2 construct: also called Human NaPi2b peptide
# Experimental: Human cyclized NaPi2b peptide were generated and lyophilized covering the amino acids identified in the XMT-1535 epitope (New England Peptide, Gardner, Mass.). For the ELISA, the lyophilized NaPi2b peptide was reconstituted in DMSO. Human NaPi2b peptide was used to coat 96-Well high binding clear ELISA plates (Corning, 3369) at 1 μg/mL in sodium carbonate buffer, pH 9 to a total volume of 100 μl per well. After a 2-hour incubation, plates were washed 4 times with 100 μl per well TBS-Tween 20, blocked with 3% BSA in TBS-Tween 20 (100 μl per well) for 1 hour, and washed again. Test articles, MERS67 (Lot U0859BH and Lot U5569BL), XMT-1535, and the non-binding control (trastuzumab) were added to the wells at a dose concentration range from 100 nM to 0.002 nM using an […] 3-fold serial dilution in TBS-Tween 20 buffer at 100 μl per well. Plates were incubated for 1 hour with rocking then washed as above. […] The Optical Density (O.D.) was measured at 450 nm with a SpectraMax M5 microplate reader (Molecular Devices, Sunnyvale, Calif.). The O.D. for each treatment was graphed, and Kd calculated for each antibody with GraphPad Prism software (GraphPad Software Inc., La Jolla, Calif.) by non-linear regression using the one site-specific binding model.
# [2] = target: T1, human NaPi2b; experiment: immunohistochemistry, human lung tumor tissue microarray
# Experimental: An immunohistochemical assay for MERS67 was established on a Leica BondRx Instrument. The assay was performed on tissue microarrays (TMA), including NSCLC and small cell lung cancer (SCLC) cell line arrays, and a NSCLC human tumor array. Tumors in the NSCLC array had previously been classified based on morphologic features only. All arrays were scored based on the H-score method.
# To characterize the primary tumors further, the tumor TMA was stained with TTF-1 and p40, markers of ACA and squamous cell carcinoma (SCC), respectively. Results of this staining were compared to MERS67 staining patterns. H-Scores in the NSCLC cell line TMA ranged from 0-260, and from 0-100 in the small cell lung carcinoma (SCLC) TMA. Within the tissue microarray, 99 individual cases were evaluable. By morphologic classification 63 cases were SCC, and 23 cases were ACA. Using an arbitrary cut point of H=50, there was a statistically significant difference in the number of NaPi2b positive ACA cases (19/23) vs SCC (3/63). FIG. 13 is a box plot of the H scores derived from MERS67 IHC comparing SCC vs ACA, when these tumors were classified by morphology only.
binder,measurement,setting,value
"MERS67 (antibody, rabbit IgG1, V domains shown, XMT-1535 variable regions joined to the rabbit IgG1 constant region and the rabbit Ig kappa-b4 C region; Two lots tested: U0859BH (one-step purification) and U5696BL (two-step purification); also called MER67; chimeric NaPi2b antibody) VH: QVQLVQSGAEVVKPGASVKMSCKASGYTFTGYNIHWVKQAPGQGLEWIGAIYPGNGDTSYKQKFRGRATLTADTSTSTVYMELSSLRSEDSAVYYCARGETARATFAYWGQGTLVTVSS VL: DIQMTQSPSSLSASVGDRVTITCSASQDIGNFLNWYQQKPGKTVKVLIYYTSSLYSGVPSRFSGSGSGTDYTLTISSLQPEDFATYYCQQYSKLPLTFGQGTKLELKR",Kd,[1],0.256 nM and 0.104 nM
same,binding result,[2],binds
